Test results: patent publication EP2938355B1, “MONOVALENT AND MULTIVALENT LEISHMANIA VACCINES” (VIRBAC S.A., priority 2012, dated 2014)
Where a chain is given by its changes, count along the chain named.

Columns and labels:
Assay in all cases: Competition binding to HLA class II molecule against reference peptide
Design in all cases: species or system Homme
HLA-DR3 = HLA-DR3 (Homo sapiens, UniProt P01903+P01911); settings: for activité relative (ratio moyenne IC50 peptide testé / moyenne IC50 peptide de référence): lower ratio = better affinity; for affinité de liaison (in words): HLA-DR3
From the text: (§1) Les tableaux 7 et 8 ci-dessous représentent la concentration en peptide compétiteur (nM) (SEQ ID N°9 ou SEQ ID N°10) pour laquelle 50% de la liaison du peptide de référence aux molécules HLA-DRB1 et aux molécules HLADRB3, -DRB4, -DRB5 et HLA-DP4, est inhibée (IC50).
(§2) Pour chacun des tableaux 7 et 8, les résultats sont issus de deux expériences indépendantes. Tableau 7 :
(§3) Les valeurs indiquées correspondent aux IC50 obtenus pour chaque peptide étudié.
(§4) Plus la valeur de l'IC50 est faible, meilleure est l'affinité du peptide pour la molécule HLA étudiée. Ainsi, il est important de noter que les peptides de référence n'ont pas tous la même capacité de liaison selon la molécule HLA considérée. Ces valeurs correspondent aux valeurs standards attendues.
(§5) Le tableau 9 ci-dessous illustre l'activité relative des deux composés peptidiques SEQ ID N°9 et 10 pour les molécules HLA-DR, HLA-DRB et HLA-DP4 étudiées. L'activité relative est calculée à partir des deux tableaux 7 et 8 ci-dessus de la façon suivante : Ratio = (moyenne des valeurs d'IC50 obtenues pour le peptide testé)/(moyenne des valeurs d'IC50 obtenues avec le peptide de référence). Tableau 9 :
(§6) Dans ce tableau 9, l'activité relative est définie par le ratio obtenu entre la moyenne des IC50 calculée avec le peptide compétiteur et la moyenne des IC50 calculée avec le peptide de référence. L'activité relative permet ainsi de comparer les propriétés de liaison du peptide testé à celle du peptide de référence qui correspond au peptide qui lie de façon la plus efficace une molécule HLA donnée. Ainsi, une activité relative de 2 signifie que le peptide testé lie 2 fois moins efficacement la molécule HLA étudiée que le peptide de référence. Ainsi, plus le ratio est faible, meilleure est l'affinité du peptide pour la molécule HLA considérée.

HLA-DR11 = HLA-DR11 (Homo sapiens, UniProt P01903+P01911); settings: lower ratio = better affinity
From the text: as §1, §2, §3, §4, §5, §6

HLA-DR1 = HLA-DR1 (Homo sapiens, UniProt P01903+P01911); settings: for activité relative (ratio moyenne IC50 peptide testé / moyenne IC50 peptide de référence): DR1, lower ratio = better affinity
From the text: as §1, §2, §3, §4, §5, §6

HLA-DR4 = HLA-DR4 (Homo sapiens, UniProt P01903+P01911); settings: lower ratio = better affinity
From the text: as §1, §2, §3, §4, §5, §6

HLA-DR13 = HLA-DR13 (Homo sapiens, UniProt P01903+P01911); settings: lower ratio = better affinity
From the text: as §1, §2, §3, §4, §5, §6

HLA-DR7 = HLA-DR7 (Homo sapiens, UniProt P01903+P01911); settings: for activité relative (ratio moyenne IC50 peptide testé / moyenne IC50 peptide de référence): DR7, lower ratio = better affinity
From the text: as §1, §2, §3, §4, §5, §6

HLA-DR15 = HLA-DR15 (Homo sapiens, UniProt P01903+P01911); settings: lower ratio = better affinity
From the text: as §1, §2, §3, §4, §5, §6

HLA-DRB3 = HLA-DRB3 (Homo sapiens, UniProt P01903+P79483); settings: for activité relative (ratio moyenne IC50 peptide testé / moyenne IC50 peptide de référence): DRB3, lower ratio = better affinity; for affinité de liaison (in words): HLADRB3
From the text: as §1, §2
(§7) Comme pour les résultats présentés ci-dessus, le tableau 8 illustre l'ensemble des valeurs d'IC50 obtenues pour les deux peptides testés et leur peptide de référence comme contrôle interne, pour la liaison aux molécules HLA-DRB3, -DRB4, -DRB5 et aux molécules HLA-DP401 et -DP402. Tableau 8 =:
as §5, §6

HLA-DP401 = target: T1, HLA-DP401 (Homo sapiens, UniProt P04440+P20036); settings: lower ratio = better affinity
T1 sequence (P04440 30-258): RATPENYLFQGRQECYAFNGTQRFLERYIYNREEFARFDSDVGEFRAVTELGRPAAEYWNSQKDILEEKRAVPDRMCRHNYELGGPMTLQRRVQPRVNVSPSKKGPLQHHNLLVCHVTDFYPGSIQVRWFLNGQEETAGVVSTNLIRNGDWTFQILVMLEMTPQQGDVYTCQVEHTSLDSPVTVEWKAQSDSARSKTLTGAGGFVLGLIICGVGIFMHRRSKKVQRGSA
T1 sequence (P20036 32-260 limits assumed): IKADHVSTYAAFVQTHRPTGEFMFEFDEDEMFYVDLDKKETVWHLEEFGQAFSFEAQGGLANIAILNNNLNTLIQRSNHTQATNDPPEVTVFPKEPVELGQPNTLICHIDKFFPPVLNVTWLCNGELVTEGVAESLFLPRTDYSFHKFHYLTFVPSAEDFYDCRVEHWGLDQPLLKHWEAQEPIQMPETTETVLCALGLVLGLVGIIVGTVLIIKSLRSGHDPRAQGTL
From the text: as §1, §2, §7, §5, §6

HLA-DP402 = target: T2, HLA-DP402 (Homo sapiens, UniProt P04440+P20036, A65V/A84D/A85E); settings: lower ratio = better affinity
T2 sequence (P04440 30-258 A65V/A84D/A85E): T1 sequence (P04440 30-258) with A36V, A55D, A56E
T2 sequence (P20036 29-260): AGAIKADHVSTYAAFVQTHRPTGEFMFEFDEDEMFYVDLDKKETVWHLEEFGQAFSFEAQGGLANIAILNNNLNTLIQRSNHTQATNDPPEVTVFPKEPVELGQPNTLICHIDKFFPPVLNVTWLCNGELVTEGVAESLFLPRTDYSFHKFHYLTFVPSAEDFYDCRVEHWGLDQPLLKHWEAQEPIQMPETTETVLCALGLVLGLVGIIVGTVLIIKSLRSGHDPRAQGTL
From the text: as §1, §2, §7, §5, §6

HLA-DRB4 = HLA-DRB4 (Homo sapiens, UniProt P01903+P13762); settings: lower ratio = better affinity
From the text: as §1, §2, §7, §5, §6

HLA-DRB5 = HLA-DRB5 (Homo sapiens, UniProt P01903+Q30154); settings: for activité relative (ratio moyenne IC50 peptide testé / moyenne IC50 peptide de référence): lower ratio = better affinity
From the text: as §1, §2, §7, §5, §6

EGYFVTDEKTGLVYRDGGVAAASSG (EGYFVTDEKTGLVYRDGGVAAASSG) [SEQ ID N°10]
activité relative (ratio moyenne IC50 peptide testé / moyenne IC50 peptide de référence) (HLA-DR3; DR3): 0,2 | IC50 (HLA-DR3; DR3, two independent experiments, one line each, read-out: IC50 (concentration en peptide compétiteur pour laquelle 50% de la liaison du peptide de référence est inhibée)): 35 nM | affinité de liaison (in words) (HLA-DR3): bonne affinité de liaison | activité relative (ratio moyenne IC50 peptide testé / moyenne IC50 peptide de référence) (HLA-DR11): 3 | activité relative (ratio moyenne IC50 peptide testé / moyenne IC50 peptide de référence) (HLA-DR1): 271 | activité relative (ratio moyenne IC50 peptide testé / moyenne IC50 peptide de référence) (HLA-DR4): 2 | activité relative (ratio moyenne IC50 peptide testé / moyenne IC50 peptide de référence) (HLA-DR13): 18 | activité relative (ratio moyenne IC50 peptide testé / moyenne IC50 peptide de référence) (HLA-DR7): 928 | activité relative (ratio moyenne IC50 peptide testé / moyenne IC50 peptide de référence) (HLA-DR15): 1 | activité relative (ratio moyenne IC50 peptide testé / moyenne IC50 peptide de référence) (HLA-DRB3): 5 | affinité de liaison (in words) (HLA-DRB3): bonne affinité de liaison | activité relative (ratio moyenne IC50 peptide testé / moyenne IC50 peptide de référence) (HLA-DP401): 5556 | activité relative (ratio moyenne IC50 peptide testé / moyenne IC50 peptide de référence) (HLA-DP402): 2000 | activité relative (ratio moyenne IC50 peptide testé / moyenne IC50 peptide de référence) (HLA-DRB4): >9535 | activité relative (ratio moyenne IC50 peptide testé / moyenne IC50 peptide de référence) (HLA-DRB5): 688

TNTLAVLQAFGRAIPELGKKW (TNTLAVLQAFGRAIPELGKKW) [SEQ ID N°9]
activité relative (ratio moyenne IC50 peptide testé / moyenne IC50 peptide de référence) (HLA-DR3; DR3): >187 | affinité de liaison (in words) (HLA-DR3): n'est pas actif | activité relative (ratio moyenne IC50 peptide testé / moyenne IC50 peptide de référence) (HLA-DR11): 3 | activité relative (ratio moyenne IC50 peptide testé / moyenne IC50 peptide de référence) (HLA-DR1): 1 | affinité de liaison (in words) (HLA-DR1; HLA-DR1): affinité de liaison élevée | activité relative (ratio moyenne IC50 peptide testé / moyenne IC50 peptide de référence) (HLA-DR4): 2 | activité relative (ratio moyenne IC50 peptide testé / moyenne IC50 peptide de référence) (HLA-DR13): 41 | activité relative (ratio moyenne IC50 peptide testé / moyenne IC50 peptide de référence) (HLA-DR7): 3 | affinité de liaison (in words) (HLA-DR7; HLA-DR7): affinité de liaison élevée | activité relative (ratio moyenne IC50 peptide testé / moyenne IC50 peptide de référence) (HLA-DR15): 5 | activité relative (ratio moyenne IC50 peptide testé / moyenne IC50 peptide de référence) (HLA-DRB3): >274 | affinité de liaison (in words) (HLA-DRB3): n'est pas actif | activité relative (ratio moyenne IC50 peptide testé / moyenne IC50 peptide de référence) (HLA-DP401): >3727 | activité relative (ratio moyenne IC50 peptide testé / moyenne IC50 peptide de référence) (HLA-DP402): >2222 | activité relative (ratio moyenne IC50 peptide testé / moyenne IC50 peptide de référence) (HLA-DRB4): 1331 | affinité de liaison (in words) (HLA-DRB5): affinité de liaison élevée | activité relative (ratio moyenne IC50 peptide testé / moyenne IC50 peptide de référence) (HLA-DRB5): 0,9
